Experimental data published in the DeepSol protein solubility set.

assay: soluble on expression in E. coli; label from the status in PepcDB or PDB records

Row | Sequence | soluble on expression in E. coli
1 | MPAGLVISAPASGVGKTTLTLALARAWRNRGLSVQCFKSGPDYIDPAFHAAATGRASVNVDSWAMDRGGIAHLVGRGADADVVLAEGSMGLFDGVAARGVSGTGATADIAEMLGWPVLLVIDPSGQAQTAAAIAAGLRDYRPGVRLAGVVLNRVASPRHEDLVRRALDDAGIAVFGALPRHAEISLPKRHLGLVQAEEQAEIGKLIDEAARFVAEHVDLDAVLQSAAAWAPQPAANGLNVTPPGQRIALARDAAFSFVYPHMLEAWRAAGADISTFSPLADEAPDASADVCWLPGGYPELHAGKIAANARFCSGLRAFAETRPVHGECGGYMVLGTALTDADGVRHEMAGLLGLETSFAKRRMHLGYRLAELAAPMPGHSPGARLRGHEFHYSTIAAQPDMPLAVVHDATGAVIAETGSRRGNATGTFFHLIAEDRLEHHHHHH | soluble
2 | MGSDKIHHHHHHMIKVSQLTVRYGELKAVEDLSLEVQRGEILSLVGPSGCGKTTVVKAILGLIPYEGKIEIFTSRLGYCPQKDVLFDWMTVYENAVLPLVLRKEQPPSNIKELFERFGLSGFEEKRPYQLSGGMRQKLSLLRAVLSGEELLVLDEPFSSVDAYTRKKLQIWLSEIVHRMKSTVVLITHDVEEAVFLSDRILILSDRPARILKEIRVPFSKPRTIKTFSDPRFSEIEEEVLETLMNQP | not soluble
3 | MVAAWNRWDLSGIIKHWSPDIVHYSEDNEVSSADMVKLMEGGLKAFPDLQLEMKSIMAEEDRVALRITVTATHQGEFMGVQPTGQRVSWHLVEELRFVDGKVVEHWDVINMRPLLVRLGKLPDVPKVVLEASA | soluble
4 | MNVTTPEVAFREYQTNCLASYISADPDITPSNLILQGYSGTGKTYTLKKYFNANPNLHAVWLEPVELVSWKPLLQAIARTVQYKLKTLYPNIPTTDYDPLQVEEPFLLVKTLHNIFVQYESLQEKTCLFLILDGFDSLQDLDAALFNKYIKLNELLPKDSKINIKFIYTMLETSFLQRYSTHCIPTVMFPRYNVDEVSTILVMSRCGELMEDSCLRKRIIEEQITDCTDDQFQNVAANFIHLIVQAFHSYTGNDIFALNDLIDFKWPKYVSRITKENIFEPLALYKSAIKLFLSTDDNLSENGQGESAITTNRDDLENSQTYDLSIISKYLLIASYICSYLEPRYDASIFSRKTRIIQGRAAYGRRKKKEVNPRYLQPSLFAIERLLAIFQAIFPIQGKAESGSLSALREESLMKANIEVFQNLSELHTLKLIATTMNKNIDYLSPKVRWKVNVPWEIIKEISESVHFNISDYFSDIHE | soluble
5 | SNAAQQVQQPVAQQQVQQPAQQNTNTANAGGNQNQAAPVQNQPVAQPTDIDGTYTGQDDGDRITLVVTGTTGTWTELESDGDQKVKQVTFDSANQRMIIGDDVKIYTVNGNQIVVDDMDRDPSDQIVLTK | soluble
6 | MTLPVRKSLHDAVLQASKADTWEQATKEWNEVSFIFNGIGRSNCVCGNAIKYAYELFNGVTGQRLFPIGSDCVRHFHRLSLDQQLEEEEKLLRKVENLTRKAQKKEKIKVNKSNFDERLLKWLWEKGVFKPNRGNQFAPERDYQLFLEVFQGGSWTKAEPKKKARMEEVLEKCIKPFLLGKSDDQLYLVKLGKEKIDYEQELRIQAEKERKKRDKIAKQYADNLVLAMGPAERAYQDYFGFTETLTQEERKWEKILFGKNRAERAIKAKQYQKELEKDQRIASQDPIERKQKQTWILNSYFRELPEEKARFSRLLLEYRKSGEVPFSTEYLSDHLIDFFYKMKAFEFEIAPEQVRDFLKKSLQEDHRSSAQGSWIEGILLNCLKPFLERLVI | not soluble
7 | GAGNYQLAVSTLAKVWKQLHIPDVYDVGAMYFIKTFLHFGVSLLSAGHAWTNPQSFLDNAPLRQTLGKMMPFDGIEPSIASGALQALALTASCYTTGMSVTFFQGEESLGEWTRYQRLGVRERIGLDHLMATAAIPLIFPSVRIGEKFYCDGAVRQLSPLSPALH | not soluble
8 | MEDKATQTPEQTFSMEAALQETEARLEKRVRPGQILTGKVVLVGSEGVAVDIGAKTEGIIPFNQLTTKPLSEEELRNLLSPGDEVKVQVLRVDPETGQILLSRKKIEAQEKWDRIQELYEKGEPVTVTIKERVKGGVVAELDGVQGFMPASQLDLRRVPNLDEFVGQQVLAKIIEFHRRKGRVILSRRAVLEEEQKKAREAFLKSLEPGQVVEGTVVEVTDFGVFVNLGPVDGLVHRSEITWGRFNHPREVIQKGQKVKAQVLSVDPEKERVNLSIKALIPDPWTTVAEKYPVGTRVRGKVVGLTQFGAFVEVEPGLEGLIHISELSWTKRPKHPSEVVKEGDEVEAVVLRLDPEERRLSLGLKQTQPDPWQQLTEKYPPGTVLKGKVTGVTDFGVFVEIEPGIEGLVHVSELDHKRVENPAALFKKGDEMEVVVLNIDPVEQRVSLSRKRLLPPPLPQEEERPRRARSGKERARRKGAPRREDRREYEYGAVAEYNLYDASSVPTTTATVKLGDLYGDLLASLGLEEEAEEKSRG | soluble
9 | MPLTKRAVSPVNLSRGTIPSTIHRDELQCTANGTIANLVRQLSSLSKHAENIFGEIYHDAMIINHKSNTLQQRIDRLHKKVEDLDSNSDQATLNEANMRKAFKSSMLVDQHILDRSTLPTALTEIYAKCDPPPDLDALNPYRDSEIPALSLYTNPSFFFDLWKKETLKEVAERPRRVKSPNDGSKSPKKRRKQPGQGPLGTTAYNDMQHRNRQISGSRINQQNEVFSFPEEYQAPQALGLQLNFKNQHPSNMVAPIGMTMHHHPQQNVHPSQQRGGAPAAARGSPNVKRPTEAPPPVNLDHLPPPDMSILSIDDDDDDLPPPPPPLLMNTSIVHQLPAEAPSTIQFVEPSAAPPTNIPPPPPPPPPMVISSAAASFAAPAPKPSADGEAAGTNSPVAPKQPDARSDLLAQIQSGIKLKKVQRAEAEAAENAALEANNVAAILKRRMDQVMGNDDSSSEEGADDDEWDD | not soluble
10 | EPRRPRAGPEELGKILQGVVVVLSGFQNPFRSELRDKALELGAKYRPDWTRDSTHLICAFANTPKYSQVLGLGGRIVRKEWVLDCHRMRRRLPSQRYLMAGPGSSSEEDEASHSGG | soluble
11 | MGSDKIHHHHHHMANYPGIDTELLRTFVAIADHGGFTRAGEVVNRTQSAVSMQMKRLEEDVVQRQLFQREGRTLNLTAEGQVLLGYARRILKLHSEVFNTLREPHMVGVVKIGSPDDYVMRFLPGILSQFAQAYPLVQVEVHCEPSDLLLQRQDLDLTIVTRKPGTEIGTLLRHERLVWMEAIGFAPHEQKPMPLAMFNTHCFCRDWACNALDSVEREYRIAYTSSSMAAITAVVSAGLAVTAQFQSLATPELRILGDAEHLPHLPTASIVLLRNPKTPSPITECMADYIIDGFKP | not soluble
12 | MLQYPELPLESPLIDAELPDPRGGRYRLSQFHEPLLAVVFMCNHCPYVKGSIGELVALAERYRGKVAFVGINANDYEKYPEDAPEKMAAFAEEHGIFFPYLLDETQEVAKAYRALRTPEVFLFDERRLLRYHGRVNDNPKDPSKVQSHDLEAAIEALLRGEEPPLKEAPAIGCTIKWRPGNEPEVRIG | soluble
13 | SVPLVAVVSGPRAQLFACLLRLGTQQVGPLQLHTGASHAARNHYEVLVLGGGSGGITMAARMKRKVGAENVAIVEPSERHFYQPIWTLVGAGAKQLSSSGRPTASVIPSGVEWIKARVTELNPDKNCIHTDDDEKISYRYLIIALGIQLDYEKIKGLPEGFAHPKIGSNYSVKTVEKTWKALQDFKEGNAIFTFPNTPVKCAGAPQKIMYLSEAYFRKTGKRSKANIIFNTSLGAIFGVKKYADALQEIIQERNLTVNYKKNLIEVRADKQEAVFENLDKPGETQVISYEMLHVTPPMSPPDVLKTSPVADAAGWVDVDKETLQHRRYPNVFGIGDCTNLPTSKTAAAVAAQSGILDRTISVIMKNQTPTKKYDGYTSCPLVTGYNRVILAEFDYKAEPLETFPFDQSKERLSMYLMKADLMPFLYWNMMLRGYWGGPAFLRKLFHLGMS | soluble
14 | MGSDKIHHHHHHMKPENLVKAVKILDNHIPKELDDPNSIAQAAEKLELKNFSQSELVNGFNLFFAQRFEDRLQIFNRITPPVIGDLMALVTEKLGLAKQEIFDPEIVFPDLIFQFASHFGQSIYGRAADQIIDASLKKLANIYRFDFTDSDHEKIVVSRILGIDFAAEMNHFFKASNLKVGESAILLVNNSDLQSNSFAEILKKNKNMALLAIIELPTKLFKHSEMRSSLLILRRKVDNEKVTAQVLLAQIPELSNKEDFSKFVSQLETWKKENL | not soluble
15 | MTSMHTSVNGCKFCDIVKNKKELQLKENKSCVVINDIKPKAKNHYLVLSKQHIAKPTDLTVADVPLLEEMEKTGRELLREHLKKKGEADTVEDMLRIGFHLPPLLSVHHLHMHIIYPISDMGLISRKLTFRPGKVFKPARELIDQLKEDAGVPDPLEGNPAKDDVHEKIPAQVIS | not soluble
16 | MTKLGLGLSGDLGAQEIVRMLDLQPHPEGGWYRQTFQDAPGPDGRAASTCIYYLLEAEQMSAWHRVDAVETWHYYAGAPISLTLSPPDGKGASAYVLGPDLRAGCRPQVIVPTLWWQTAVSLGAWTLVGCTVAPGFRFEGFEMAPPDWTPSTGLEHHHHHH | soluble
17 | MSKPSTPAPASADQNGDSATRQTAQTTETPASLLSAVGNGAPNMAGFTLNRDMVPFFPYQLQNPMLQPPQNSLENAIVHSLGTLAAQSSMFGQLCEKMLKAQEEARADQRSIREEHRAEREKADERSQQNMDKMMALVHSLVERVDRSHASSYDVVGQKNPSSSSLKPAKRVKSAVVRQSNLAKRTGAPVDAAKELKKIRDEENRNHGRSAERDNVFIGAVLVGKGSQYDKDLEKFKSFRCRTCNEVSQTKEQLVDHFSNNHAGELGARRSLRIKQTSC | not soluble
18 | SMQEKIMRELHVKPSIDPKQEIEDRVNFLKQYVKKTGAKGFVLGISGGQDSTLAGRLAQLAVESIREEGGDAQFIAVRLPHGTQQDEDDAQLALKFIKPDKSWKFDIKSTVSAFSDQYQQETGDQLTDFNKGNVKARTRMIAQYAIGGQEGLLVLGTDHAAEAVTGFFTKYGDGGADLLPLTGLTKRQGRTLLKELGAPERLYLKEPTADLLDEKPQQSDETELGISYDEIDDYLEGKEVSAKVSEALEKRYSMTEHKRQVPASMFDDWWK | soluble
19 | MHDVPPFSGAKLALFYGDHLVVYKRDEKPGIPFPGYWDFPGGGREGLETPAECALRELEEEFSIRLEEPRIEWQRQYPSTSGSAPFAYFLVARLEDREFEAIRFGDEGQYWRLMEVDAYLAHAMAVPYLQSRLGDYLRERRRIGE | soluble
20 | MSAACWEEPWGLPGGFAKRVLVTGGAGFIASHMIVSLVEDYPNYMIINLDKLDYCASLKNLETISNKQNYKFIQGDICDSHFVKLLFETEKIDIVLHFAAQTHVDLSFVRAFEFTYVNVYGTHVLVSAAHEARVEKFIYVSTDEVYGGSLDKEFDESSPKQPTNPYASSKAAAECFVQSYWEQYKFPVVITRSSNVYGPHQYPEKVIPKFISLLQHNRKCCIHGSGLQTRNFLYATDVVEAFLTVLKKGKPGEIYNIGTNFEMSVVQLAKELIQLIKETNSESEMENWVDYVNDRPTNDMRYPMKSEKIHGLGWRPKVPWKEGIKKTIEWYRENFHNWKNVEKALEPFPV | soluble
21 | MSLKIGIIGASGKAGNEILKEAKKRGHEVTAIVRNASKVQEQDVAILEKDVFELTAEDIKPFDAVVNAFGAAPGQEHLHVEAGRALISILKDAKHTRLLVVGGAGSLFVDEAKTTRLMDTPEFPKEYLPTASNQGENLKDLQQTDSISWTFLSPAAFFDPAGKRTGSYQKGKDNVIVNAKGDSYISYADYAIAVLDELEHPEHKNERFTVVSEAEEGGSHHHHHH | soluble
22 | MYIECEGILKRYFKDVPEIIKRACKFAREKLGEGSHGFSHTLRVLAIALHIGSKENADLEILALAALLHDIARPLEDKGVIRDHAIEGAKIAKEFLSNYEKVEEVAHAIASHRFSNDVEPRTLEAKILSDADKIDALGAIGIARVFIYSCEKERSIEDSIKHFEEKILKLKDLMYTKTGKEIAEKRHKVVKWYVETLKSELREFLYLEHHHHHH | soluble
